Usually EC50 stands for the midpoint of the concentration-response curve. A low value points to greater potency. The term Kd denotes the free concentration of one partner at which half of the binding sites on the other are occupied at equilibrium, for simple one-to-one binding. A word on the koff: it is the first-order rate constant of dissociation. The kon is a measure of how fast the partners come together.

Like-named read-outs stand apart in the source and are kept apart here.

The target in experiment [1] is T1, human IL6R-Fc protein (human, biotin-labeled in the ELISAs (sites not given)).
T1 construct: In house made; also called biotin-labeled human IL6R-Fc protein
T1 sequence (chain, as listed by the source limits assumed): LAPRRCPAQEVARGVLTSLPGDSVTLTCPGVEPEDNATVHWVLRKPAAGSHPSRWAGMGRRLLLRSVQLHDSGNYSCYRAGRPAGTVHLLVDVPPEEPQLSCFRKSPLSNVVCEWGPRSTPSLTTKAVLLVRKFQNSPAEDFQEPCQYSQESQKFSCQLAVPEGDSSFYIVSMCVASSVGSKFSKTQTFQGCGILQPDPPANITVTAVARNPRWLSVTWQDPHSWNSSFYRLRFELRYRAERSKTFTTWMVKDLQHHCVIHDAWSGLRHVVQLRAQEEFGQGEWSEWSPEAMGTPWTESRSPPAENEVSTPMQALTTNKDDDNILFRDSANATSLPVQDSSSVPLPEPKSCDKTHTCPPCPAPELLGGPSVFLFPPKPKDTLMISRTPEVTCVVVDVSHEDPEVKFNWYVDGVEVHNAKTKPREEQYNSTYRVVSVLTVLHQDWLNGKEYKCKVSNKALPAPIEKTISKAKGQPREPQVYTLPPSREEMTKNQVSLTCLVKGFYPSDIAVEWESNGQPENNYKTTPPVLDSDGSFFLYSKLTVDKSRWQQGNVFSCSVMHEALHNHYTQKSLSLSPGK
In words: capture ELISA: antibody captured on anti-IgG F(ab')2 coated plate, then biotin-labeled human IL6R-Fc, streptavidin-HRP. The procedure:
(§1) For the capture ELISA, 96-well micro plates were coated with 2 μg/ml AffiniPure Goat Anti-Mouse IgG, F(ab′)₂ fragment specific (Jackson ImmunoResearch Laboratories, Inc., Cat #115-005-072) in PBS, 100 μl/well, and incubated for 2 hours at 37° C. Plates were washed once with wash buffer (PBS+0.05% v/v Tween-20, PBST) and then blocked with 200 μl/well blocking buffer (5% w/v non-fatty milk in PBST) overnight at 4° C. […] Plates containing captured anti-IL6R antibodies were incubated with biotin-labeled human IL6R-Fc protein (prepared in house, SEQ ID NO: 43, 39.5 ng/ml in 2.5% w/v non-fatty milk in PBST, 100 μl/well) for 40 minutes at 37° C., washed 4 times, and incubated with streptavidin conjugated HRP (1:10000 dilution in PBST, Jackson ImmunoResearch Laboratories, Inc., Cat #016-030-084, 100 μl/well) for 40 minutes at 37° C. After a final wash, plates were incubated with 100 μl/well ELISA substrate TMB (InnoReagents, Cat #TMB-S-002). The reaction was stopped 3-10 minutes later at room temperature with 50 μl/well 1M H₂SO₄, and the absorbance of each well was read on a microplate reader using dual wavelength mode at 450 nm for TMB and 630 nm as the reference wavelength. Then the OD (450-630) values were plotted against antibody concentration. Data was analyzed using Graphpad Prism software and EC₅₀ values were reported.
For the capture ELISA, 96-well micro plates were coated with 2 μg/ml goat anti-human IgG (AffiniPure Goat Anti-Human IgG, F(ab′)₂ fragment specific, Jackson ImmunoResearch Laboratories, Inc., Cat #109-005-097) instead of goat anti-mouse IgG F(ab′)₂ fragment, 100 μl/well.

The target in experiment [2] is T2, macaca IL6R-his protein (macaca mulatta).
T2 chain: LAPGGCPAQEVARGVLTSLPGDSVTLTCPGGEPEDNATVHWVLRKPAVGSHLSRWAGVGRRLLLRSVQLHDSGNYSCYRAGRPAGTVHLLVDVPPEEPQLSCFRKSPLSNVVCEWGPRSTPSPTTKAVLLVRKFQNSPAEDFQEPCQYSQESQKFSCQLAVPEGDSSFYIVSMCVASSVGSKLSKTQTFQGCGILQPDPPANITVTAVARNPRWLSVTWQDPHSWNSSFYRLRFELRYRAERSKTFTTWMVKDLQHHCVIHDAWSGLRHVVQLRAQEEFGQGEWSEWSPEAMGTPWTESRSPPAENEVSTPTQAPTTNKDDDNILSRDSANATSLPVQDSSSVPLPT
Put plainly: SPR Biacore T200; mAb captured by anti-mouse IgG on CM5, antigen in flow, 1:1 fit. As for the experimental part: (§2) Un-reacted moieties on the biosensor surface were blocked with ethanolamine. […] Then, serially diluted recombinant human IL6R-his (in house made, amino acid sequence set forth in SEQ ID NO: 44) or macaca IL6R-his protein (in house made, amino acid sequence set forth in SEQ ID NO: 45), starting at 100 nM with a 2-fold serial dilution in HBS-EP⁺ buffer (provided by Biacore), was flowed onto the chip at a flow rate of 30 μL/min. The antigen-antibody association kinetics was followed for 2 minutes and the dissociation kinetics was followed for 10 minutes. The association and dissociation curves were fit to a 1:1 Langmuir binding model using BIAcore evaluation software.
For orientation: In SPR one partner is held on a chip, and binding of the other changes the refractive index at the surface.

Experiment [3] addresses T3, recombinant human IL6R-his (human, UniProt P08887 20-365).
T3 construct: In house made; the entry includes the C-terminal His tag; also called human IL6R-his protein
T3 sequence: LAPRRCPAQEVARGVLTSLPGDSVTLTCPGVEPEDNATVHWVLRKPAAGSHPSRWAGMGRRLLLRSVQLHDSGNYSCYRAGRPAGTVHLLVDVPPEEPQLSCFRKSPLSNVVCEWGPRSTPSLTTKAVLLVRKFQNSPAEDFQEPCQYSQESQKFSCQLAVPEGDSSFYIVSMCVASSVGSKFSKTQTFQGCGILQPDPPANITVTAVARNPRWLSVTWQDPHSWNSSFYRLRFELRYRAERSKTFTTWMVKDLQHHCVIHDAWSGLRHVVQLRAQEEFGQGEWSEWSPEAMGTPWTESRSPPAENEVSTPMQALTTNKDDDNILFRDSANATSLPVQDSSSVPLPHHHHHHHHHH
The description is as above. As for the experimental part: as §2

Experiment [4] concerns the target T1, human IL6R-Fc protein. In words: capture ELISA: antibody captured on anti-IgG F(ab')2 coated plate, then biotin-labeled human IL6R-Fc, streptavidin-HRP. As for the experimental part:
as §1
The source holds these as a separate data set.

B1: Tocilizumab (antibody, human IgG1, kappa, V domains shown)
VH: QVQLQESGPGLVRPSQTLSLTCTVSGYSITSDHAWSWVRQPPGRGLEWIGYISYSGITTYNPSLKSRVTMLRDTSKNQFSLRLSSVTAADTAVYYCARSLARTTAMDYWGQGSLVTVSS
VL: DIQMTQSPSSLSASVGDRVTITCRASQDISSYLNWYQQKPGKAPKLLIYYTSRLHSGVPSRFSGSGSGTDFTFTISSLQPEDIATYYCQQGNTLPYTFGQGTKVEIKR
notes: In house made; also called benchmark; Actemra
In the case of B1, in experiment [1], the concentration giving a half-maximal response (EC50) is 0.504 nM.

B2: mouse anti-IL6R monoclonal antibody 1F7 (antibody, V domains shown)
VH: QVQLQQPGAELVKPGASVKLSCKASDYTFTSYWMHWVKQRPGQGLEWIGEINPSNGRTNYNEKFKNKATLTVDKSSSTAYVQLYSLTSEDSAVYYCARLSIHYVFDYWGQGTTLTVSS
VL: ELVLTQSPTTMAASPGEKITFTCSASSSISSNYLHWYQQKPGFSPKLLISGTSNLASGVPPRFSGSGSGTSYSLTIVTMEAEDVATYYCQQGSGIPFTFGSGTKLEIK
notes: Mouse hybridoma mAb
As to B2, in experiment [2], the equilibrium dissociation constant (Kd) came out at 0.523 nM, the off-rate constant (koff) was 6.46e-05 s⁻¹ and the kon is 124000 M⁻¹ s⁻¹. Further, in experiment [3], the Kd came out at 0.537 nM, the off-rate constant (koff) worked out at 7.46e-05 s⁻¹ and the kon was 139000 M⁻¹ s⁻¹. For the same molecule, the midpoint of the response in experiment [4], the EC50, lay at 0.0593 nM.

B3: mouse anti-IL6R monoclonal antibody 1A3 (antibody, V domains shown)
VH: QVQLQQPGAELVKPGASVKLSCKASGYTFTSYWMHWVKQRPAQGLEWIGEINPSNGRTNFNEKFKTKATLTVDKSSNTAYMQLSSLTSEDSAVYSCLRLNTHYVFDYWGQGTTLTVSS
VL: EIVLTQSPTTMAASPGEKITITCSASSSISSNYLHWYQQKPGFSPKLLISRTSNLASGVPTRFSGSGSGTSYSLTIGTMEAGDVATYYCQQGSGIPFTFGSGTKLEIK
notes: Mouse hybridoma mAb purified on Protein A
In experiment [2], B3 had a dissociation constant Kd of 0.328 nM, an off-rate constant (koff) of 4.54e-05 s⁻¹ and a kon of 139000 M⁻¹ s⁻¹. Besides, in experiment [3], the equilibrium dissociation constant (Kd) stood at 0.293 nM, the koff is 4.32e-05 s⁻¹ and the kon turned out to be 148000 M⁻¹ s⁻¹. The EC50 in experiment [4] amounted to 0.073 nM.

B4: mouse anti-IL6R monoclonal antibody 1D4 (antibody, V domains shown)
VH: QVQLQQPGAELVKPGASVKLSCKASGYTFTSYWMHWVKVRPGQGLEWIGEINPTNGRTNYNEDFKSKATLTVNSSSSTAYMQLSSLTSEDSAVYYCARLNTHYVFDYWGQGTTLTVSS
VL: EIVLTQSPTILAASPGEKITFTCSVSSSISSNYLHWYQQKPGFSPKLLIYRTSNLASGVPARFSGSGSGTSYSLTIGTMEAEDVATYYCQQGSGIPFTFGSGTKLEIK
notes: Mouse hybridoma mAb
As to B4, in experiment [2], binding was characterised by a dissociation constant (Kd) of 0.6 nM, the koff turned out to be 7.39e-05 s⁻¹ and the on-rate constant (kon) was 123000 M⁻¹ s⁻¹. Further, in experiment [3], the Kd was 0.628 nM, the koff came out at 8.64e-05 s⁻¹ and the on-rate (kon) came out at 138000 M⁻¹ s⁻¹. Also, in experiment [4], a half-maximal effect (EC50) was put at 0.0558 nM.

B5: mouse anti-IL6R monoclonal antibody 3C2 (antibody, V domains shown)
VH: QVQLQQPGTELVKPGASVKLSCKASGYTFTTYWIHWVKQRPGQGLEWIGEINPSNGRTNYNEHFKSKATLTVDKSSSTASMQLSSLTSADSAVYYCARLNTHYVFDSWGQGTTLTVSS
VL: EIVLTQSPTTMAASPGEKITITCSASSSISSNYLHWYQQKPGFSPKLLIYRTSNLASGVPTHFSGSGSGTSYSLTIGTMEAEDVATYYCQQGSGIPFTFGSGTKLEIK
notes: Mouse hybridoma mAb
As to B5, in experiment [2], the affinity, expressed as Kd, was 0.977 nM; the koff was found to be 0.000127 s⁻¹; the on-rate (kon) is 130000 M⁻¹ s⁻¹. In experiment [3], the Kd came out at 0.911 nM, the koff amounted to 0.000135 s⁻¹ and the on-rate (kon) came out at 148000 M⁻¹ s⁻¹. The EC50 in experiment [4] stood at 0.0536 nM.

B6: mouse anti-IL6R monoclonal antibody 1G1 (antibody, V domains shown)
VH: QVQLQQPGAELVKPGASVKLSCKASGYTFTSYWMHWVKVRPGQGLEWIGEINPTNGRTNYNEDFKSKATLTVESSSSTAYMQFSSLTSEDSAVYYCARLNTHYVFDYWGQGTTLTVSS
VL: EIVLTQSPTILAASPGEKITFTCSVSSSISSNYLHWYQQKPGFSPKLLIYRTSNLASGVPARFSGSGSGTSYSLTIGTMEAEDVATYYCQQGSGIPFTFGSGTKLEIK
notes: Mouse hybridoma mAb
In experiment [2], B6 returned a Kd of 0.736 nM, a koff of 8.85e-05 s⁻¹ and a kon of 120000 M⁻¹ s⁻¹. Besides, in experiment [3], the Kd amounted to 0.647 nM, the off-rate (koff) is 9.09e-05 s⁻¹ and the association rate constant (kon) worked out at 141000 M⁻¹ s⁻¹. The EC50 in experiment [4] was 0.085 nM.

B7: mouse anti-IL6R monoclonal antibody 1B5 (antibody, V domains shown)
VH: QVQLQQPGAELVKPGASVKLSCKASGYTFTSYWMHWVKQRPGQGLEWIGEINPSNGRTNYNENFKSKATLTVDKSSSTAYMQLSSLTSEDSAVYYCARLNTHYVFDYWGQGTTLTVSS
VL: EIVLTQSPTILAASPGEKITFTCSVSSSISSNYLHWYQQKPGFSPKLLIYRTSNLASGVPARFSGSGSGTSYSLTIGTMEAEDVATYYCQQGSGIPFTFGSGTKLEIK
notes: Mouse hybridoma mAb
In experiment [2], B7 showed an equilibrium dissociation constant (Kd) of 0.609 nM, a dissociation rate constant (koff) of 7.86e-05 s⁻¹ and an on-rate (kon) of 129000 M⁻¹ s⁻¹. In experiment [3], the dissociation constant Kd was found to be 0.476 nM, the off-rate constant (koff) came to 6.7e-05 s⁻¹ and the kon was determined as 141000 M⁻¹ s⁻¹. Besides, a half-maximal effect in experiment [4] (EC50) was put at 0.0372 nM.

B8: humanized antibody hu1H7-V5 (antibody, human IgG1, kappa, V domains shown)
VH: QVQLVQSGAEVKKPGASVKVSCKASGYTFTNYWMHWVRQAPGQGLEWIGEINPTNGRTNYNENFKSRVTLTVDTSTSTVYMELSSLRSEDTAVYYCARLNTHYVFDSWGQGTLVTVSS
VL: EIVLTQSPGTLSLSPGERATLSCSVSSSISSNYLHWYQQKPGLSPRLLISRTSTLASGIPARFSGSGSGTEYTLTISRMQSEDFAVYYCQQGSGIPFTFGQGTKLEIKR
notes: Human IgG1 / kappa
B8: the concentration giving a half-maximal response (EC50) in experiment [1] amounted to 0.31 nM.

B9: Chimeric 1H7 (antibody, human IgG1, kappa, V domains shown)
VH: QVQLQQPGTELVKPGASVKLSCKASGYTFTNYWMHWVKQRPGQGLDWIGEINPTNGRTNYNENFKSKATLTVDKSSSTAYMQLSSLTSEDSAVYYCARLNTHYVFDSWGQGTTLTLSS
VL: EIVLTQSPTTLAASPGEKITFTCSVSSSISSNYLHWYQQKPGFSPKLLISRTSTLASGVPARFSGSGSGTSYSLTIGTMEAEDVATYYCQQGSGIPFTFGSGTKLELKR
notes: Mouse variable regions on human IgG1 / human kappa constant regions; also called chimeric antibody 1H7
For B9, in experiment [1], the EC50 was found to be 0.201 nM.

B10: mouse anti-IL6R monoclonal antibody 1H9 (antibody, V domains shown)
VH: QVQLQQPGAELVKPGASVKLSCKASGYTFTSYWMHWVKLRPGQGLEWIGEINPTNGRTNYYEKFKNRATLTADKSSSTAYMQLSSLTFEDSAVYFCAKFHYSRWYFDVWGTGTTVTVSS
VL: DIVMTQSQKFMSTSVGDRVSITCKASQNVGTAVVWYQQKPGQSPKLLINPASNRYTGVPDRFTGSGSGTDFTLTISNMQSEDLADYFCQQYSSYPLTFGAGTKLELK
notes: Mouse hybridoma mAb
For B10, in experiment [2], the Kd was 1.65 nM, the off-rate constant (koff) was found to be 0.000155 s⁻¹ and the on-rate (kon) is 94100 M⁻¹ s⁻¹. Further, in experiment [3], the Kd amounted to 1.08 nM, the koff came out at 0.00012 s⁻¹ and the kon turned out to be 112000 M⁻¹ s⁻¹. Besides, the EC50 in experiment [4] amounted to 0.0679 nM.

The record behind these values is US20230167182A1 (BIOSION, published 2023).
